The values that follow come from the supplement of paper PMC7877785.

The data set is described as follows: self-splicing fitness, log relative to wild type (ln ratio); higher = more splicing; Tetrahymena group I intron in knt gene, E. coli kanamycin selection, DiMSum; sequences stand for … in CUCUCU…GGAGGGAAAAGUUAUCAGGCAUGCACCUGGUAGCUAGUCUUUAAACCAAUAGAUUGCAUCGGUUUAAAAGGCAAGACCGUCAAAUUGCGGGAAAGGGGUCAACAGCCGUUCAGUACCAAGUCUCAGGGGAAACUUUGAGAUGGCCUUGCAAAGGGUAUGGUAAUAAGCUGACGGACAUGGUCCUAACCACGCAGCCAAGUCCUAAGUCAACAGAUCUUCUGUUGAUAUGGAUGCAGUUCACAGACUAAAUGUCGGUCGGGGAAGAUGUAUUCUUCUCAUAAGAUAUAGUCGGACCUCUCCUUAAUGGGAGCUAGCGGAUGAAGUGAUGCAACACUGGAGCCGCUGGGAACUAAUUUGUAUGCGAAAGUAUAUUGAUUAGUUUUGGAGUACUCGUGGUCG
An outline of the steps:
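Colonies from six replicate transformations of E. coli BL21(DE3) were pooled and amplicon-sequenced on an Illumina HiSeq 2500. The library placed an intron with all eight P1ex-region nucleotides randomised inside the knt kanamycin-resistance gene on pET-22b(+), and cells grew overnight at 37°C or 30°C on LB agar with or without 25 μg/mL kanamycin (plus 100 μg/mL carbenicillin, 50 μM IPTG, 0.2% rhamnose). Fitness is the DiMSum error-weighted combination of wild-type-normalised replicate fold changes, kanamycin versus none.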

± gives the uncertainty stated by the source.

On to CUUGAGCAAUAUUACGUUGA, for which the “self-splicing fitness (ln)” value is -3.17 ± 0.27 (30 °C) and -1.97 ± 0.22 (37 °C).
Take CCUUAGCAAUAUUACGCCUG: the “self-splicing fitness (ln)” value (37 °C) was -2.89 ± 0.34.
Turning to AGCGAGCAAUAUUACGAAUG, the “self-splicing fitness (ln)” value reads like this: (30 °C) -3.8 ± 0.43; (37 °C) -2.2 ± 0.42.
Taken in the same sequence, the figures for GCGCAGCAAUAUUACGCUUG were -2.57 ± 0.12 and -1.06 ± 0.12.
Taken in the same sequence, the figures for UACUAGCAAUAUUACGGCUG were -0.825 ± 0.14 and -0.545 ± 0.19.
The like results for GCAAAGCAAUAUUACGGGGC were, in that order, -4.05 ± 0.34 and -3.13 ± 0.31.
UUGGAGCAAUAUUACGAAGU: the “self-splicing fitness (ln)” value by setting is: (30 °C) -3.34 ± 0.37; (37 °C) 0.521 ± 0.31.
Take AUCGAGCAAUAUUACGUUUC: under “37 °C”, the “self-splicing fitness (ln)” value was -2.81 ± 0.31.
Take GUCCAGCAAUAUUACGGAGG: the “self-splicing fitness (ln)” value runs as follows: (30 °C) -1.76 ± 0.06; (37 °C) -1.17 ± 0.078.
The like results for UGAGAGCAAUAUUACGUUAG were, in that order, -3.68 ± 0.37 and -3.31 ± 0.4.
Consider CCAGAGCAAUAUUACGUGCA, for which the “self-splicing fitness (ln)” value reads like this: (30 °C) -1.88 ± 0.22; (37 °C) -2.54 ± 0.4.
Taken in the same sequence, the figures for GGGCAGCAAUAUUACGCAAC were -0.812 ± 0.16 and -1.56 ± 0.13.
AAGAAGCAAUAUUACGGUUU: the “self-splicing fitness (ln)” value (30 °C) was -1.44 ± 0.068 and the “self-splicing fitness (ln)” value (37 °C) is -0.413 ± 0.087.
The like results for GUAGAGCAAUAUUACGAGGU were, in that order, -1.12 ± 0.16 and -1.33 ± 0.32.
The like results for ACCCAGCAAUAUUACGUCCU were, in that order, -0.73 ± 0.075 and -0.51 ± 0.089.
In the case of AUUGAGCAAUAUUACGAUGG, the “self-splicing fitness (ln)” value (30 °C) was -2.84 ± 0.25.
On to AAUUAGCAAUAUUACGGCAG, for which the “self-splicing fitness (ln)” value is, setting by setting: (30 °C) -0.691 ± 0.11; (37 °C) -0.322 ± 0.1.
Taken in the same sequence, the figures for ACUAAGCAAUAUUACGUUUU were -2.55 ± 0.093 and -1.54 ± 0.1.
Taken in the same sequence, the figures for AUUCAGCAAUAUUACGCACA were -0.671 ± 0.096 and -0.192 ± 0.1.
Taken in the same sequence, the figures for UCGCAGCAAUAUUACGGAAA were -2.71 ± 0.21 and -1.57 ± 0.17.
On to CUGAAGCAAUAUUACGGAAU, for which the “self-splicing fitness (ln)” value was -3.01 ± 0.15 (30 °C) and -1.96 ± 0.15 (37 °C).
The like results for UAAGAGCAAUAUUACGCGUC were, in that order, -3.81 ± 0.25 and -2.29 ± 0.23.
The like results for UUAAAGCAAUAUUACGGGCA were, in that order, -0.351 ± 0.12 and 0.329 ± 0.16.
Taken in the same sequence, the figures for CAAGAGCAAUAUUACGUUAG were -1.97 ± 0.11 and -0.995 ± 0.12.
Take GUCAAGCAAUAUUACGGUAG: the “self-splicing fitness (ln)” value reads like this: (30 °C) -3.35 ± 0.18; (37 °C) -4.66 ± 0.38.
Taken in the same sequence, the figures for UUAGAGCAAUAUUACGUUAG were -0.978 ± 0.13 and 0.238 ± 0.21.
The like results for CGAUAGCAAUAUUACGGUCA were, in that order, -0.212 ± 0.057 and 0.228 ± 0.065.
The like results for GGUAAGCAAUAUUACGGCCG were, in that order, -0.712 ± 0.12 and -0.544 ± 0.17.
Take CAUCAGCAAUAUUACGGUAG: the “self-splicing fitness (ln)” value is, setting by setting: (30 °C) -0.362 ± 0.075; (37 °C) 0.051 ± 0.085.
In the case of UUCCAGCAAUAUUACGCUUA, the “self-splicing fitness (ln)” value was -0.131 ± 0.066 (30 °C) and -0.175 ± 0.077 (37 °C).
With AGUUAGCAAUAUUACGGAAC, the “self-splicing fitness (ln)” value (37 °C) is -2.72 ± 0.38.
Regarding UGUAAGCAAUAUUACGCAUG, the “self-splicing fitness (ln)” value was -1.95 ± 0.099 (30 °C) and 0.308 ± 0.14 (37 °C).
The like results for GACUAGCAAUAUUACGUGGG were, in that order, -3.35 ± 0.13 and -1.96 ± 0.098.
Consider UACGAGCAAUAUUACGGUGC, for which the “self-splicing fitness (ln)” value runs as follows: (30 °C) -3.46 ± 0.4; (37 °C) -2.43 ± 0.48.
The like results for CUCGAGCAAUAUUACGAUAU were, in that order, -4.2 ± 0.31 and -1.91 ± 0.25.
For UGGCAGCAAUAUUACGAGCA, the “self-splicing fitness (ln)” value (30 °C) is -0.315 ± 0.098 and the “self-splicing fitness (ln)” value (37 °C) is -0.218 ± 0.12.
The like results for UAUGAGCAAUAUUACGUCAG were, in that order, -2.82 ± 0.14 and -2.51 ± 0.2.
Turning to CGACAGCAAUAUUACGGACA, the “self-splicing fitness (ln)” value runs as follows: (30 °C) -1.24 ± 0.11; (37 °C) -0.761 ± 0.12.
Taken in the same sequence, the figures for CUGCAGCAAUAUUACGGUUG were -1.02 ± 0.13 and -1.83 ± 0.19.
Turning to UCAUAGCAAUAUUACGCACU, the “self-splicing fitness (ln)” value by setting is: (30 °C) -3.19 ± 0.25; (37 °C) -3.18 ± 0.32.
Taken in the same sequence, the figures for UGUGAGCAAUAUUACGAUGU were -3.05 ± 0.18 and -2.08 ± 0.24.
For UUUAAGCAAUAUUACGCGGC, under “37 °C”, the “self-splicing fitness (ln)” value is -2.78 ± 0.31.
Regarding ACACAGCAAUAUUACGAUGA, the “self-splicing fitness (ln)” value is, setting by setting: (30 °C) -0.664 ± 0.048; (37 °C) -0.444 ± 0.057.
For the sequence ACGGAGCAAUAUUACGAUCU, the “self-splicing fitness (ln)” value is, setting by setting: (30 °C) -2.61 ± 0.14; (37 °C) -1.37 ± 0.11.
Taken in the same sequence, the figures for AUGGAGCAAUAUUACGCAGC were -2.14 ± 0.23 and -2.54 ± 0.33.
Regarding AGUUAGCAAUAUUACGGCCG, the “self-splicing fitness (ln)” value is -0.855 ± 0.21 (30 °C) and -0.628 ± 0.3 (37 °C).
For CUCUAGCAAUAUUACGCCUU, the “self-splicing fitness (ln)” value (30 °C) was -1.58 ± 0.18.
Still for that read-out and setting: in the case of CUGAAGCAAUAUUACGCCCA it was -2.13 ± 0.34.
Consider GCGAAGCAAUAUUACGUGAA, for which the “self-splicing fitness (ln)” value runs as follows: (30 °C) -2.3 ± 0.14; (37 °C) -0.526 ± 0.14.
The like results for CAACAGCAAUAUUACGGGUA were, in that order, -3.03 ± 0.12 and -1.22 ± 0.084.
For GACUAGCAAUAUUACGUUGG, the “self-splicing fitness (ln)” value by setting is: (30 °C) -2.85 ± 0.22; (37 °C) -2.42 ± 0.39.
The like results for AAUAAGCAAUAUUACGCUGG were, in that order, -1.81 ± 0.17 and -1.5 ± 0.21.
Taken in the same sequence, the figures for CGUUAGCAAUAUUACGAAGU were -2.41 ± 0.34 and -1.29 ± 0.3.
Taken in the same sequence, the figures for GAUAAGCAAUAUUACGUUUU were -2.39 ± 0.098 and -1.48 ± 0.1.
Take GCGUAGCAAUAUUACGCUCU: the “self-splicing fitness (ln)” value (30 °C) was -3 ± 0.46 and the “self-splicing fitness (ln)” value (37 °C) is -1.59 ± 0.27.
Turning to GCAGAGCAAUAUUACGUUUA, the “self-splicing fitness (ln)” value (30 °C) was -2.56 ± 0.3.
With UUAUAGCAAUAUUACGAGAA, the “self-splicing fitness (ln)” value (37 °C) is -1.51 ± 0.38.
Consider UAAAAGCAAUAUUACGGGGG, for which the “self-splicing fitness (ln)” value is -2.62 ± 0.19 (30 °C) and -2.43 ± 0.24 (37 °C).
Taken in the same sequence, the figures for UCGAAGCAAUAUUACGAUCA were -1.46 ± 0.18 and -0.436 ± 0.23.
The like results for UAUCAGCAAUAUUACGGGCA were, in that order, -0.0174 ± 0.066 and 0.193 ± 0.084.
The like results for AGCCAGCAAUAUUACGACUU were, in that order, -1.6 ± 0.1 and -0.895 ± 0.12.
With CUACAGCAAUAUUACGAUGC, the “self-splicing fitness (ln)” value (30 °C) is -3.88 ± 0.39 and the “self-splicing fitness (ln)” value (37 °C) was -2.81 ± 0.2.
The like results for ACUUAGCAAUAUUACGCGAU were, in that order, -3.66 ± 0.36 and -1.13 ± 0.17.
